Measured values published in publication PMC2597415.

What was measured:
[1] = substrate: O=C(CO)[C@H](O)[C@H](O)COP(=O)(O)O; experiment: coupled-enzyme spectrophotometric assay of RPE activity; assay type: biochemical, Streptococcus pyogenes; settings: Co2+ enzyme
[2] = substrate: O=C(CO)[C@H](O)[C@H](O)COP(=O)(O)O; experiment: as above; assay type: biochemical, Escherichia coli; settings: Co2+ enzyme

Protein	Km [1] [µM]	kcat [1] [s⁻¹]	kcat/Km [1] [M⁻¹ s⁻¹]	Km [2] [µM]	kcat [2] [s⁻¹]	kcat/Km [2] [M⁻¹ s⁻¹]
RPE (D-ribulose 5-phosphate 3-epimerase) (Streptococcus pyogenes serotype M1) (protein) MSTLKIAPSILAADYANFASELARIEETDAEYVHIDIMDGQFVPNISFGADVVASMRKHSKLVFDCHLMVVDPERYVEAFAQAGADIMTIHTESTRHIHGALQKIKAAGMKAGVVINPGTPATALEPLLDLVDQVLIMTVNPGFGGQAFIPECLEKVATVAKWRDEKGLSFDIEVDGGVDNKTIRACYEAGANVFVAGSYLFKASDLVSQVQTLRTALNV	1200 ± 100	3800 ± 160	3.2e+06			
ALSE (D-allulose 6-phosphate 3-epimerase) (Escherichia coli K-12) (protein) MKISPSLMCMDLLKFKEQIEFIDSHADYFHIDIMDGHFVPNLTLSPFFVSQVKKLATKPLDCHLMVTRPQDYIAQLARAGADFITLHPETINGQAFRLIDEIRRHDMKVGLILNPETPVEAMKYYIHKADKITVMTVDPGFAGQPFIPEMLDKLAELKAWREREGLEYEIEVDGSCNQATYEKLMAAGADVFIVGTSGLFNHAENIDEAWRIMTAQILAAKSEVQPHAKTA				3000 ± 300	2 ± 0.8	670
ALSE (D-allulose 6-phosphate 3-epimerase) (Escherichia coli K-12; DEL196-196) (protein) MKISPSLMCMDLLKFKEQIEFIDSHADYFHIDIMDGHFVPNLTLSPFFVSQVKKLATKPLDCHLMVTRPQDYIAQLARAGADFITLHPETINGQAFRLIDEIRRHDMKVGLILNPETPVEAMKYYIHKADKITVMTVDPGFAGQPFIPEMLDKLAELKAWREREGLEYEIEVDGSCNQATYEKLMAAGADVFIVGSGLFNHAENIDEAWRIMTAQILAAKSEVQPHAKTA				3900 ± 500	130 ± 7	33000
ALSE (D-allulose 6-phosphate 3-epimerase) (Escherichia coli K-12; DEL198-198) (protein) MKISPSLMCMDLLKFKEQIEFIDSHADYFHIDIMDGHFVPNLTLSPFFVSQVKKLATKPLDCHLMVTRPQDYIAQLARAGADFITLHPETINGQAFRLIDEIRRHDMKVGLILNPETPVEAMKYYIHKADKITVMTVDPGFAGQPFIPEMLDKLAELKAWREREGLEYEIEVDGSCNQATYEKLMAAGADVFIVGTSLFNHAENIDEAWRIMTAQILAAKSEVQPHAKTA				5100 ± 500	440 ± 20	86000
ALSE (D-allulose 6-phosphate 3-epimerase) (Escherichia coli K-12; DEL197-197) (protein) MKISPSLMCMDLLKFKEQIEFIDSHADYFHIDIMDGHFVPNLTLSPFFVSQVKKLATKPLDCHLMVTRPQDYIAQLARAGADFITLHPETINGQAFRLIDEIRRHDMKVGLILNPETPVEAMKYYIHKADKITVMTVDPGFAGQPFIPEMLDKLAELKAWREREGLEYEIEVDGSCNQATYEKLMAAGADVFIVGTGLFNHAENIDEAWRIMTAQILAAKSEVQPHAKTA				2800 ± 600	240 ± 14	85000
